Source: article PMC8580317
Where a chain is given by its changes, count along the chain named. “And” between values parts separate entries of the source, which are not always exact repeats. Identical values can stand only once. Each block holds one molecule with its values, some of them ahead of it.

Legend:
FZD5 CRD = FZD5 CRD (UniProt Q13467); conditions: cited from earlier work
[1] = molecular target: Nluc-FZD6-K466K-Cy3 sensor (human) (UniProt O60353)
[2] = molecular target: T1, Nluc-FZD6-Q171K-Cy3 sensor (human) (UniProt O60353)
T1 sequence (chain, trans-cyclooct-2-ene-L-lysine (TCO*K) at 171, labelled with Tet-Cy3): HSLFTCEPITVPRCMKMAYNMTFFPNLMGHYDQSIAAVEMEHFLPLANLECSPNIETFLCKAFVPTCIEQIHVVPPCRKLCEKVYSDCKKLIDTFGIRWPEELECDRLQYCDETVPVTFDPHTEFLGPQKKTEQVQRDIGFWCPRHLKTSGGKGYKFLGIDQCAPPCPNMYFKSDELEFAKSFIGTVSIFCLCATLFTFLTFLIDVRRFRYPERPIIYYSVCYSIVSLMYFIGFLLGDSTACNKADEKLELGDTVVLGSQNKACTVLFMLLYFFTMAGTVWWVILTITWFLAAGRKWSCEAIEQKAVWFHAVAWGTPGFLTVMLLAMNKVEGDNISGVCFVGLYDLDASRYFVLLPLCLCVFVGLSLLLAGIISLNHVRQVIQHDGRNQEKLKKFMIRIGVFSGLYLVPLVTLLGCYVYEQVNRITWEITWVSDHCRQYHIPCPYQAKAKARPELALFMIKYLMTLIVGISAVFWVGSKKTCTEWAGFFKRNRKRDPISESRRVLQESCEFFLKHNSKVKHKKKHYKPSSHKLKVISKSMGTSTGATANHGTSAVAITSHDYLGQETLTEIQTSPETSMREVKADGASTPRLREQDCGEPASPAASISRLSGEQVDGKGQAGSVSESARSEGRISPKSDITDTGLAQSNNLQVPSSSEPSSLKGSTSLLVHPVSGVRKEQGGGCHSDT

[3] = molecular target: Nluc-FZD5-Q493K-Cy3 sensor (human) (UniProt Q13467)
[4] = molecular target: Nluc-FZD6-K466K-Cy3 sensor (human) (UniProt O60353); remark: listed apart in the source
[5] = molecular target: T2, Nluc-FZD6-K466K-Cy3 dimer mutant (D365A/R368A/Y369A) (human) (UniProt O60353)
T2 sequence (chain, trans-cyclooct-2-ene-L-lysine (TCO*K) at 466, labelled with Tet-Cy3): T1 sequence (chain, trans-cyclooct-2-ene-L-lysine (TCO*K) at 171, labelled with Tet-Cy3) with K153Q, D347A, R350A, Y351A

[6] = molecular target: Nluc-FZD6-K466K-Cy3 sensor (human) (UniProt O60353); remark: listed apart in the source

Molecule: WNT-3A (from UniProt P56704)
- Kd (FZD5 CRD): 3.1 nM

- fitted maximal ∆BRET amplitude of the Cy3-labelled sensor upon WNT-5A (3 μg/ml), HEK293T cells [1]: -26.4%
- fitted maximal ∆BRET amplitude of the Cy3-labelled sensor upon WNT-5A (3 μg/ml), HEK293T cells [2]: -11.6%
- maximal ∆BRET amplitude of the Cy3-labelled sensor upon WNT-5A (3 μg/ml), HEK293T cells [3]: -15.6%
- EC50 of the WNT-5A-induced BRET signal of the sensor (concentration-response curve), HEK293T cells [4]: 22.4 nM and 850 ng/ml
- fitted plateau of the WNT-5A-induced BRET response of the sensor, HEK293T cells [5]: -10.2%
- fitted plateau of the WNT-5A-induced BRET response of the sensor (experiment beside the dimer mutant), HEK293T cells [6]: -19.7%
B1: recombinant WNT-5A (ligand)
chain: IIGAQPLCSQLAGLSQGQKKLCHLYQDHMQYIGEGAKTGIKECQYQFRHRRWNCSTVDNTSVFGRVMQIGSRETAFTYAVSAAGVVNAMSRACREGELSTCGCSRAARPKDLPRDWLWGGCGDNIDYGYRFAKEFVDARERERIHAKGSYESARILMNLHNNEAGRRTVYNLADVACKCHGVSGSCSLKTCWLQLADFRKVGDALKEKYDSAAAMRLNSRGKLVQVNSRFNSPTTQDLVYIDPSPDYCVRNESTGSLGTQGRLCNKTSEGMDGCELMCCGRGYDQFKTVQTERCHCKFHWCCYVKCKKCTEIVDQFVCK
